Molecular target: Argonaute-2 (hAgo2) (Homo sapiens, UniProt Q9UKV8 Q9UKV8:1-859)
Experiment: EMSA; DNA cariMir co-migrates with Ago2-miR complex
Details: tags: expressed in sf9 insect cells, endogenous insect miRs co-purify; label: fluorescein
Protocol: Recombinant hAgo2 (Creative Biomart) was preloaded with synthetic miR guide in cleavage buffer (150 mM NaCl, 5 mM MgCl₂, 2.5% glycerol, 0.05% Tween-20, 10 mM Tris-HCl, pH 7.4) for 10-20 min at room temperature, followed by addition of target cariMir. Reactions were stopped by addition of gel loading buffer and immediately resolved by non-denaturing PAGE using 10% TBE gels (Life Technologies). Gels were stained with SYBR Green I and imaged with a PXi gel imager (Syngene). Gel densitometric analysis was performed using Image J and data were plotted in Prism 6 (GraphPad).
When cariMirs were mixed with recombinant Ago2 pre-loaded with synthetic miRs, cariMirs were cleaved producing the expected 5′ and 3′ cleavage products (see FIG. 14B), consistent with miR-guided Ago2 endonucleolytic action subsequent to specific hybridization of cariMir and miR within Ago2. […] Various components of the method are shown in the lanes of the gel as indicated above the gel. In the rightmost lane on the gel image (labeled “miR+Ago2+cariMir”), all components are added to allow potential Ago-mediated cleavage of the cariMir to occur (see FIG. 14A). The amounts of the various components in the reaction mixture are indicated to the left of the gel. […]

Sequence of Argonaute-2 (hAgo2) (Q9UKV8 whole entry, one chain of several): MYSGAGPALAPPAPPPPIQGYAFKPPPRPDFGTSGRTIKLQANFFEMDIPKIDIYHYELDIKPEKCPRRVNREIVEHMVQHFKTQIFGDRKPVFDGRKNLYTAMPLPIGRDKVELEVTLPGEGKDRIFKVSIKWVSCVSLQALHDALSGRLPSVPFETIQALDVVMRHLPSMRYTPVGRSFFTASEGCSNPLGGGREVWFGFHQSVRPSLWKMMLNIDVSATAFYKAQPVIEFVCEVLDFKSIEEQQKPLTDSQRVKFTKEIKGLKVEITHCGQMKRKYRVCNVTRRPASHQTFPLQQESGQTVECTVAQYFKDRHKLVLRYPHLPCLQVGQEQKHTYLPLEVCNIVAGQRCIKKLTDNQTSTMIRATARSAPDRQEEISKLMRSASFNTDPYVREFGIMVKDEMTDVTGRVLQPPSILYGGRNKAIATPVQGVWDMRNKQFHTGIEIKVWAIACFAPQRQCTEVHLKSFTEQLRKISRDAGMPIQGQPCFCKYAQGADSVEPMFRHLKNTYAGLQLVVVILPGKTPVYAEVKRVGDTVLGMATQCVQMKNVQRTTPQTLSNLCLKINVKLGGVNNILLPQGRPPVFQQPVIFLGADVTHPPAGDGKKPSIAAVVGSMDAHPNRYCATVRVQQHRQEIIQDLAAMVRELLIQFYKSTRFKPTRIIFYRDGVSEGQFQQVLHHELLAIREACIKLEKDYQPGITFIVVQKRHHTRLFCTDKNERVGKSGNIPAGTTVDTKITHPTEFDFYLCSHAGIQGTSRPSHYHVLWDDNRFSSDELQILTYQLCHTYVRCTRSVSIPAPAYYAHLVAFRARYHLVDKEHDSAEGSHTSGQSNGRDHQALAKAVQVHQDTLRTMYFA

B1: miR guide ; cariMir target (ssRNA ; ssDNA)
RNA: UAGAGGUACGUGCUGAGGCUU
DNA: CTAGCATGACTGCAGTACGTCACTGCAGGCCTCAGCACGTACCTCTATAACCGCCCTGTCTCTTATACACATCTGACGCTGCCGACGA
modifications: 5'-phosphate, internal fluorescein-dT
Q: Does B1 bind?
A: Result: binds
